Measurements: IntAct's records for PubMed 25601757

Target: wt1_human WT1 (UniProt P19544)
Sequence (P19544 whole entry): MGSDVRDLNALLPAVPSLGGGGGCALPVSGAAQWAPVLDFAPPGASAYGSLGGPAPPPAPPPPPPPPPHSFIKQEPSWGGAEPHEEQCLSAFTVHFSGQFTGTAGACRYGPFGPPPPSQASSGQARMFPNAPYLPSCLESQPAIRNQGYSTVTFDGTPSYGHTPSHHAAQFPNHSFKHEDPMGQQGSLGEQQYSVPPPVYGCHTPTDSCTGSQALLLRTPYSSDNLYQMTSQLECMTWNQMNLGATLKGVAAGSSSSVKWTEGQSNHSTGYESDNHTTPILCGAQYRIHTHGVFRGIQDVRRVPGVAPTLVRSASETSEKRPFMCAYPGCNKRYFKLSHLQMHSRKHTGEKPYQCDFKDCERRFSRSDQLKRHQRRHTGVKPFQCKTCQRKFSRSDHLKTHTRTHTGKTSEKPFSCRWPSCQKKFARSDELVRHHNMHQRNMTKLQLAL

Which “effect of a mutation on the interaction” value does the source give for “Methylcytosine dioxygenase TET2 (Homo sapiens), Q6N021 A1505T” here?
The value was “disrupting interaction strength”.

Which “effect of a mutation on the interaction” value does the source give for “Methylcytosine dioxygenase TET2 (Homo sapiens), Q6N021 D1242V” here?
Its value is “disrupting interaction strength”.

How did the “effect of a mutation on the interaction” value turn out when “Methylcytosine dioxygenase TET2 (Homo sapiens), Q6N021 D1314G” was run?
The value was “with no effect”.

For “Methylcytosine dioxygenase TET2 (Homo sapiens), Q6N021 F1368L”, which “effect of a mutation on the interaction” value is on record?
The value was “decreasing interaction strength”.

With “Methylcytosine dioxygenase TET2 (Homo sapiens), Q6N021 G1256D” as the substance, how does the “effect of a mutation on the interaction” value read?
Its value is “disrupting interaction strength”.

Which “effect of a mutation on the interaction” value does the source give for “Methylcytosine dioxygenase TET2 (Homo sapiens), Q6N021 G1861R” here?
The value was “disrupting interaction strength”.

Which “effect of a mutation on the interaction” value does the source give for “Methylcytosine dioxygenase TET2 (Homo sapiens), Q6N021 L1340R” here?
The value was “decreasing interaction strength”.

Which “effect of a mutation on the interaction” value does the source give for “Methylcytosine dioxygenase TET2 (Homo sapiens), Q6N021 P1617H” here?
The value was “disrupting interaction strength”.

For “Methylcytosine dioxygenase TET2 (Homo sapiens), Q6N021 R1302G”, which “effect of a mutation on the interaction” value is on record?
The value was “disrupting interaction strength”.

How did the “effect of a mutation on the interaction” value turn out when “Methylcytosine dioxygenase TET2 (Homo sapiens), Q6N021 T1884A” was run?
The value was “disrupting interaction strength”.
